Blank lines part the entries; values can stand above or below the binder they belong to. Numbered stars: 1 amine (or outer) side, 2 acyl side, 3 side chain; on linkers, the order of the positions; unused ones are H or OH. Bridge positions count the residues as written; N and C are the ends. Square brackets hold non-standard residues; d marks the D form. Side chains are listed from the residue outwards. Ends that are not written are not given here. * marks the point of attachment. C20 diacid = O=C(O)CCCCCCCCCCCCCCCCCCC(=O)*; γGlu = O=C(O)[C@H](CCC(=O)[*:2])N[*:1]
What was measured:
[1] = target: T1, human calcitonin receptor (human, UniProt P30988 25-474); assay: SPA competition against 125I-calcitonin, membranes of BHK cells with human calcitonin receptor (Assay VII)
T1 construct: whole, on cells; also called hCTR; hCT
T1 sequence (looked up): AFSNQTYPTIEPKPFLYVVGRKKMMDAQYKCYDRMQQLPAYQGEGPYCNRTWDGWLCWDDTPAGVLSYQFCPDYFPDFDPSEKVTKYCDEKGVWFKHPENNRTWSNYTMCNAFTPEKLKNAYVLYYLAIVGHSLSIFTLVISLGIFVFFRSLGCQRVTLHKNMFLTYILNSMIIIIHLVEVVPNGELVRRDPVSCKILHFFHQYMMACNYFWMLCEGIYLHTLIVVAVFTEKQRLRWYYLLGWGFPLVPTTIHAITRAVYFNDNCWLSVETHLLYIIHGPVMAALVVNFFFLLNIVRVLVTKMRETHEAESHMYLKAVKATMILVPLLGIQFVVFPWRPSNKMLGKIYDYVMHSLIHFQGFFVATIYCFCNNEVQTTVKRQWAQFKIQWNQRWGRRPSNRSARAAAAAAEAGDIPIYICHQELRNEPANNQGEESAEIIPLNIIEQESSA
Method in brief: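 BHK hCTR membranes 35 ng/μL + SPA beads 0.05 mg/well; buffer 50 mM Hepes pH 7.4, 1 mM CaCl2, 5 mM MgCl₂, 0.1% OA, 0.02% Tween20. 120 min, 25° C., shaking. Scintillation count; IC50 by one-site binding competition.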

[2] = target: T1, human calcitonin receptor; assay: ratio of IC50 at human calcitonin receptor to IC50 at human amylin receptor (SPA competition assays)
Method in brief: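 Competition binding by SPA with cell membranes (35 ng/μL) and SPA beads in 50 mM Hepes pH 7.4 with 1 mM CaCl2, 5 mM MgCl2, 0.1% OA and 0.02% Tween20. Incubated 120 min at 25 °C with shaking, then counted.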

[3] = target: T2, human calcitonin receptor (human, UniProt P30988 25-474); assay: cell-based or functional assay
T2 sequence (looked up): T1 sequence (looked up)

[4] = target: T3, human amylin receptor (amylin 3(a) receptor: human calcitonin receptor with RAMP-3) (human, UniProt P30988 25-474; O60896 24-148, limits assumed); assay: cell-based or functional assay
T3 sequence (looked up) 1: T1 sequence (looked up)
T3 sequence (looked up) 2: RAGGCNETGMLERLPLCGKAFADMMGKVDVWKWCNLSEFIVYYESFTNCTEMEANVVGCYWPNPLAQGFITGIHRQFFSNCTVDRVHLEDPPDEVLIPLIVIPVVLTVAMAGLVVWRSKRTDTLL

IC50 [1]: 6.3 nM
Ratio hCT/hAmylin binding [2]: 38.6
B1: N^ε1-[(4S)-4-carboxy-4-(19-carboxynonadecanoylamino)butanoyl]-[Glu14,Arg17,Pro21,Pro27,Pro34,Arg35]-h-amylin (peptide)
peptide: K([γGlu-C20 diacid])CNTATCATQRLAEFLRHSSPNFGAIPSSTNVGPRTY-NH2
modifications: disulfide 2-7; N-terminus assumed
SMILES: CC[C@H](C)[C@H](NC(=O)[C@H](C)NC(=O)CNC(=O)[C@H](Cc1ccccc1)NC(=O)[C@H](CC(N)=O)NC(=O)[C@@H]1CCCN1C(=O)[C@H](CO)NC(=O)[C@H](CO)NC(=O)[C@H](Cc1c[nH]cn1)NC(=O)[C@H](CCCNC(=N)N)NC(=O)[C@H](CC(C)C)NC(=O)[C@H](Cc1ccccc1)NC(=O)[C@H](CCC(=O)O)NC(=O)[C@H](C)NC(=O)[C@H](CC(C)C)NC(=O)[C@H](CCCNC(=N)N)NC(=O)[C@H](CCC(N)=O)NC(=O)[C@@H](NC(=O)[C@H](C)NC(=O)[C@@H]1CSSC[C@H](NC(=O)[C@@H](N)CCCCNC(=O)CC[C@H](NC(=O)CCCCCCCCCCCCCCCCCCC(=O)O)C(=O)O)C(=O)N[C@@H](CC(N)=O)C(=O)N[C@@H]([C@@H](C)O)C(=O)N[C@@H](C)C(=O)N[C@@H]([C@@H](C)O)C(=O)N1)[C@@H](C)O)C(=O)N1CCC[C@H]1C(=O)N[C@@H](CO)C(=O)N[C@@H](CO)C(=O)N[C@H](C(=O)N[C@@H](CC(N)=O)C(=O)N[C@H](C(=O)NCC(=O)N1CCC[C@H]1C(=O)N[C@@H](CCCNC(=N)N)C(=O)N[C@H](C(=O)N[C@@H](Cc1ccc(O)cc1)C(N)=O)[C@@H](C)O)C(C)C)[C@@H](C)O

IC50 [1]: 112 nM
B2: N^ε1-[(4S)-4-carboxy-4-[[(4S)-4-carboxy-4-(19-carboxynonadecanoylamino)butanoyl]amino]butanoyl]-[D-Asp14,Arg17,Pro21,Pro27,Arg35]-h-amylin (peptide)
peptide: K([γGlu-γGlu-C20 diacid])CNTATCATQRLA[dD]FLRHSSPNFGAIPSSTNVGSRTY-NH2
modifications: disulfide 2-7; N-terminus assumed
SMILES: CC[C@H](C)[C@H](NC(=O)[C@H](C)NC(=O)CNC(=O)[C@H](Cc1ccccc1)NC(=O)[C@H](CC(N)=O)NC(=O)[C@@H]1CCCN1C(=O)[C@H](CO)NC(=O)[C@H](CO)NC(=O)[C@H](Cc1c[nH]cn1)NC(=O)[C@H](CCCNC(=N)N)NC(=O)[C@H](CC(C)C)NC(=O)[C@H](Cc1ccccc1)NC(=O)[C@@H](CC(=O)O)NC(=O)[C@H](C)NC(=O)[C@H](CC(C)C)NC(=O)[C@H](CCCNC(=N)N)NC(=O)[C@H](CCC(N)=O)NC(=O)[C@@H](NC(=O)[C@H](C)NC(=O)[C@@H]1CSSC[C@H](NC(=O)[C@@H](N)CCCCNC(=O)CC[C@H](NC(=O)CC[C@H](NC(=O)CCCCCCCCCCCCCCCCCCC(=O)O)C(=O)O)C(=O)O)C(=O)N[C@@H](CC(N)=O)C(=O)N[C@@H]([C@@H](C)O)C(=O)N[C@@H](C)C(=O)N[C@@H]([C@@H](C)O)C(=O)N1)[C@@H](C)O)C(=O)N1CCC[C@H]1C(=O)N[C@@H](CO)C(=O)N[C@@H](CO)C(=O)N[C@H](C(=O)N[C@@H](CC(N)=O)C(=O)N[C@H](C(=O)NCC(=O)N[C@@H](CO)C(=O)N[C@@H](CCCNC(=N)N)C(=O)N[C@H](C(=O)N[C@@H](Cc1ccc(O)cc1)C(N)=O)[C@@H](C)O)C(C)C)[C@@H](C)O

IC50 [1]: 3.27 nM
Ratio hCT/hAmylin binding [2]: 16.7
B3: N^ε1-[(4S)-4-carboxy-4-(19-carboxynonadecanoylamino)butanoyl]-[Asp14,Arg17,Pro21,Pro27,Pro34,Glu35]-h-amylin (peptide)
peptide: K([γGlu-C20 diacid])CNTATCATQRLADFLRHSSPNFGAIPSSTNVGPETY-NH2
modifications: disulfide 2-7; N-terminus assumed
SMILES: CC[C@H](C)[C@H](NC(=O)[C@H](C)NC(=O)CNC(=O)[C@H](Cc1ccccc1)NC(=O)[C@H](CC(N)=O)NC(=O)[C@@H]1CCCN1C(=O)[C@H](CO)NC(=O)[C@H](CO)NC(=O)[C@H](Cc1c[nH]cn1)NC(=O)[C@H](CCCNC(=N)N)NC(=O)[C@H](CC(C)C)NC(=O)[C@H](Cc1ccccc1)NC(=O)[C@H](CC(=O)O)NC(=O)[C@H](C)NC(=O)[C@H](CC(C)C)NC(=O)[C@H](CCCNC(=N)N)NC(=O)[C@H](CCC(N)=O)NC(=O)[C@@H](NC(=O)[C@H](C)NC(=O)[C@@H]1CSSC[C@H](NC(=O)[C@@H](N)CCCCNC(=O)CC[C@H](NC(=O)CCCCCCCCCCCCCCCCCCC(=O)O)C(=O)O)C(=O)N[C@@H](CC(N)=O)C(=O)N[C@@H]([C@@H](C)O)C(=O)N[C@@H](C)C(=O)N[C@@H]([C@@H](C)O)C(=O)N1)[C@@H](C)O)C(=O)N1CCC[C@H]1C(=O)N[C@@H](CO)C(=O)N[C@@H](CO)C(=O)N[C@H](C(=O)N[C@@H](CC(N)=O)C(=O)N[C@H](C(=O)NCC(=O)N1CCC[C@H]1C(=O)N[C@@H](CCC(=O)O)C(=O)N[C@H](C(=O)N[C@@H](Cc1ccc(O)cc1)C(N)=O)[C@@H](C)O)C(C)C)[C@@H](C)O

IC50 [1]: 42.5 nM
Ratio hCT/hAmylin binding [2]: 151
B4: N^ε1-[(4S)-4-carboxy-4-(19-carboxynonadecanoylamino)butanoyl]-[Asp14,Arg17,Pro21,Pro27,Pro34,Arg35]-h-amylin (peptide)
peptide: K([γGlu-C20 diacid])CNTATCATQRLADFLRHSSPNFGAIPSSTNVGPRTY-NH2
modifications: disulfide 2-7; N-terminus assumed
SMILES: CC[C@H](C)[C@H](NC(=O)[C@H](C)NC(=O)CNC(=O)[C@H](Cc1ccccc1)NC(=O)[C@H](CC(N)=O)NC(=O)[C@@H]1CCCN1C(=O)[C@H](CO)NC(=O)[C@H](CO)NC(=O)[C@H](Cc1c[nH]cn1)NC(=O)[C@H](CCCNC(=N)N)NC(=O)[C@H](CC(C)C)NC(=O)[C@H](Cc1ccccc1)NC(=O)[C@H](CC(=O)O)NC(=O)[C@H](C)NC(=O)[C@H](CC(C)C)NC(=O)[C@H](CCCNC(=N)N)NC(=O)[C@H](CCC(N)=O)NC(=O)[C@@H](NC(=O)[C@H](C)NC(=O)[C@@H]1CSSC[C@H](NC(=O)[C@@H](N)CCCCNC(=O)CC[C@H](NC(=O)CCCCCCCCCCCCCCCCCCC(=O)O)C(=O)O)C(=O)N[C@@H](CC(N)=O)C(=O)N[C@@H]([C@@H](C)O)C(=O)N[C@@H](C)C(=O)N[C@@H]([C@@H](C)O)C(=O)N1)[C@@H](C)O)C(=O)N1CCC[C@H]1C(=O)N[C@@H](CO)C(=O)N[C@@H](CO)C(=O)N[C@H](C(=O)N[C@@H](CC(N)=O)C(=O)N[C@H](C(=O)NCC(=O)N1CCC[C@H]1C(=O)N[C@@H](CCCNC(=N)N)C(=O)N[C@H](C(=O)N[C@@H](Cc1ccc(O)cc1)C(N)=O)[C@@H](C)O)C(C)C)[C@@H](C)O

hCTR funct. EC50 (pM) [3]: 2140 pM
Ratio hCT/hAmylin funct. [4]: 9.9
hAmylin-R funct. EC50 (pM) [4]: 216 pM
B5: N^ε1-[(4S)-4-carboxy-4-[[(4S)-4-carboxy-4-(19-carboxynonadecanoylamino)butanoyl]amino]butanoyl]-[Glu14,Arg17,Pro21,Pro27,Pro34,Phe37]-h-amylin (peptide)
peptide: K([γGlu-γGlu-C20 diacid])CNTATCATQRLAEFLRHSSPNFGAIPSSTNVGPNTF-NH2
modifications: disulfide 2-7 (inferred)

hCTR funct. EC50 (pM) [3]: 89600 pM
hAmylin-R funct. EC50 (pM) [4]: 5170 pM
B6: N^ε1-[(4S)-4-carboxy-4-[[(4S)-4-carboxy-4-(19-carboxynonadecanoylamino)butanoyl]amino]butanoyl]-[Glu14,Arg17,Pro23,Pro34,Glu35]-h-amylin (peptide)
peptide: K([γGlu-γGlu-C20 diacid])CNTATCATQRLAEFLRHSSNNPGAILSSTNVGPETY-NH2
modifications: disulfide 2-7 (inferred)

hCTR funct. EC50 (pM) [3]: 887 pM
Ratio hCT/hAmylin funct. [4]: 8.1
hAmylin-R funct. EC50 (pM) [4]: 109 pM
B7: N^ε1-[(4S)-4-carboxy-4-[[(4S)-4-carboxy-4-(19-carboxynonadecanoylamino)butanoyl]amino]butanoyl]-[Ser14,Arg17,Pro21,Pro27,Pro34,Glu35]-h-amylin (peptide)
peptide: K([γGlu-γGlu-C20 diacid])CNTATCATQRLASFLRHSSPNFGAIPSSTNVGPETY-NH2
modifications: disulfide 2-7 (inferred)
notes: also called compound 120

hCTR funct. EC50 (pM) [3]: 1280 pM
Ratio hCT/hAmylin funct. [4]: 5.8
hAmylin-R funct. EC50 (pM) [4]: 222 pM
B8: N^ε1-[(4S)-4-carboxy-4-[[(4S)-4-carboxy-4-(19-carboxynonadecanoylamino)butanoyl]amino]butanoyl]-[Glu14,Arg17,Pro21,Pro31,Pro34,Glu35]-h-amylin (peptide)
peptide: K([γGlu-γGlu-C20 diacid])CNTATCATQRLAEFLRHSSPNFGAILSSTPVGPETY-NH2
modifications: disulfide 2-7 (inferred)

hCTR funct. EC50 (pM) [3]: 1120 pM
Ratio hCT/hAmylin funct. [4]: 3.9
hAmylin-R funct. EC50 (pM) [4]: 288 pM
B9: N^ε1-[(4S)-4-carboxy-4-(19-carboxynonadecanoylamino)butanoyl]-[Asp14,Arg17,Pro21,Pro27,Pro34,Glu35]-h-amylin (peptide)
peptide: K([γGlu-C20 diacid])CNTATCATQRLADFLRHSSPNFGAIPSSTNVGPETY-NH2
modifications: disulfide 2-7 (inferred)

From US20140087995A1 (published 2014)
